Measured values from US7510715.
Like-named read-outs stand apart in the source and are kept apart here.

Legend:
[1] = biological target: human CCR5 on cells (CEM.NKR-CCR5 transfectants; PM1 T cells; PBMCs; macrophages) (human) (UniProt P51681)
[2] = biological target: human CCR5 on cells (CEM.NKR-CCR5 transfectants; PM1 T cells; PBMCs; macrophages) (human) (UniProt P51681); test: flow cytometry, FITC-2D7 on PM1 cells after RANTES + MIP-1β (1 µg/mL each, 2 hours at 37° C.); isotype control subtracted
[3] = biological target: human CCR5 on cells (CEM.NKR-CCR5 transfectants; PM1 T cells; PBMCs; macrophages) (human) (UniProt P51681); test: flow cytometry, FITC-2D7 on PM1 cells, no treatment; isotype control subtracted
[4] = biological target: human CD4 on PM1 cells (human) (UniProt P01730)
[5] = biological target: human CD4 on PM1 cells (human) (UniProt P01730); test: flow cytometry, FITC-Leu 3a on PM1 cells after RANTES + MIP-1β (1 µg/mL each, 2 hours at 37° C.); isotype control subtracted
[6] = biological target: human CD4 on PM1 cells (human) (UniProt P01730); test: flow cytometry, FITC-Leu 3a on PM1 cells, no treatment; isotype control subtracted
[7] = biological target: human CCR5 on cells (CEM.NKR-CCR5 transfectants; PM1 T cells; PBMCs; macrophages) (human) (UniProt P51681); test: cell-based or functional assay

FITC-conjugated 2D7 (anti-CCR5; Pharmingen) (antibody)
ΔMFC [1]: 104 ΔMFC | ΔMFC [2]: 35 ΔMFC | ΔMFC [3]: 119 ΔMFC

FITC-conjugated Leu 3a (anti-hCD4; Becton Dickinson) (antibody)
ΔMFC [4]: 105 ΔMFC | ΔMFC [5]: 109 ΔMFC | ΔMFC [6]: 112 ΔMFC

recombinant Plasmodium falciparum cyclophilin (PfCyp19) (enzyme)
Inhibition, % of 12E1(JR-FL)/PM1 fusion, P falciparum cyclophilin at 10 µg/mL [7]: 0%
